Source: publication PMC11901700, “A Sweet Almond Globulin Multifunctional Peptide: Identification, In Silico Screening, Restraint Mechanisms to Keap1 and ACE, and Antihypertensive and Ferrous Transport Efficiency” (Nutrients, 2025)
Where no end group is shown, it is not given here.

How the values were obtained:
ACE (from rabbit lungs) = molecular target: T1, ACE (from rabbit lungs) (Oryctolagus cuniculus, UniProt P12822); experiment: ACE inhibitory kinetics (Lineweaver–Burk plot); format: biochemical; details: HHL 0.13–1.32 mmol/L as substrate, N = 3
T1 construct: ACE (0.1 U, from rabbit lungs, purity > 99.7%, CAS: 9015-82-1) was obtained from Sigma-Aldrich; purchased Sigma-Aldrich (St. Louis, MO, USA); host or cells: rabbit lung tissue
T1 sequence (P12822 34-1310): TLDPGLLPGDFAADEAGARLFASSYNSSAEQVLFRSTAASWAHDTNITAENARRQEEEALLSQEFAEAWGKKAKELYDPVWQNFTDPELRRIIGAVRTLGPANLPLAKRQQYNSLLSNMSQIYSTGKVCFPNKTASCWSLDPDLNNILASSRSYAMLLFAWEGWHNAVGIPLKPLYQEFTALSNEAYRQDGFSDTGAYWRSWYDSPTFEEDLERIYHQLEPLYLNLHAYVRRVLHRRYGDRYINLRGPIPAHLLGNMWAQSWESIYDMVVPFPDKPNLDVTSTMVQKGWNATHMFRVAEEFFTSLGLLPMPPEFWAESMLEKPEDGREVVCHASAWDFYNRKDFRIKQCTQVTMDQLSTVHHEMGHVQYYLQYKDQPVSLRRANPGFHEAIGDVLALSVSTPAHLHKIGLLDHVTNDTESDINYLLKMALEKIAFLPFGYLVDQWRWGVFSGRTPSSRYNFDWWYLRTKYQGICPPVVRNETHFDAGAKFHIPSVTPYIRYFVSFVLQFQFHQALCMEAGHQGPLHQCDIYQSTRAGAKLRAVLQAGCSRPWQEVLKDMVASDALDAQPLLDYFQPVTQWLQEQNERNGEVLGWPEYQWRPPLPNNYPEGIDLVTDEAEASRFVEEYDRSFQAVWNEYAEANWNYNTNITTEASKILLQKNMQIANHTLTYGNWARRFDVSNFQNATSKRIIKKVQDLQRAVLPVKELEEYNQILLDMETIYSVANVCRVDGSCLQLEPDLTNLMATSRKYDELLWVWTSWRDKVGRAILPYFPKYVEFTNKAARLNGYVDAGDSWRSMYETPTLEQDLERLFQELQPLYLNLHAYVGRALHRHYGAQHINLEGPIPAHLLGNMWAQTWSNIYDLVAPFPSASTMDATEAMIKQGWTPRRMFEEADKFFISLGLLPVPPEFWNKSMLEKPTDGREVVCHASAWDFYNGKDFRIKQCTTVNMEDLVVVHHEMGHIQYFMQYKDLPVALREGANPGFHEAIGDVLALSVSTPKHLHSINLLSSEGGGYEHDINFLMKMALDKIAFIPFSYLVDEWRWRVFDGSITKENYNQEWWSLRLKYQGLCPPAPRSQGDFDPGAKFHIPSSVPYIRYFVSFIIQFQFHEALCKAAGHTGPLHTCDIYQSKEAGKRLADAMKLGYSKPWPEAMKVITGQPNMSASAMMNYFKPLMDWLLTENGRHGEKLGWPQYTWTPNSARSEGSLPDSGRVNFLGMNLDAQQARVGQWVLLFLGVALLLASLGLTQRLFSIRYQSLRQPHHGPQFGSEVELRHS
From the text: The hippuric acid method was used to measure the samples’ inhibitory ability towards ACE, following the same procedures as Zheng et al.. The absorbance at 228 nm was the hippuric acid content and represented ACE activity; therefore, the inhibitory ability of samples towards ACE was defined as the percentage of reduction in the absorption at 228 nm between the control and sample groups. Moreover, the ACE inhibitory kinetic of SAGH peptides was investigated by employing a Lineweaver–Burk plot with N-hippuryl-L-histidyl-L-leucine (HHL, 0.13–1.32 mmol/L) as the substrate.

Caco-2 cells = experiment: Iron transmembrane absorption across Caco-2 cell monolayers; format: in vitro ADME; details: chelate 320 μg/mL, p < 0.05
Protocol: In a 24-well Transwell culture plate, Caco-2 cells (0.75 × 10^6 cells/cm^2) were cultivated using Dulbecco’s modified Eagle’s medium that contained fetal bovine serum (20 g/L), streptomycin (1 μg/μL), penicillin (1 μg/μL), and neomycin (1 μg/μL), and it was refreshed every 48 h. After 12–14 d of incubation at 5% CO2 and 37 °C, the transepithelial electrical resistance was more than 400 Ω·cm^2, and a monolayer Caco-2 cell mode was formed. Afterwards, the medium was removed, and Hank’s Balanced Salt Solution was added. After 30 min of cultivation at 5% CO2 and 37 °C, Hank’s Balanced Salt Solution was removed from the apical side, and SAGH peptide–ferrous chelates (320 μg/mL) were added and then cultivated at 5% CO2 and 37 °C for 150 min. Every 30 min, the ferrous amount of the basolateral-side cultivate solution was measured using the o-phenanthroline method.

ABTS+ quenching ability = format: physicochemical; details: at 100 μg/mL; absorbance at 734 nm; mean ± standard error
Protocol: The ABTS^+ quenching ability was determined following the same procedures described by Vásquez et al.. The same system without the sample was the control, and glutathione (0.1 mg/mL) was the comparison. The percentage of reduction in absorbance at 734 nm was defined as the ABTS^+ scavenging ability of samples.

PMYGGGMV–ferrous chelate: chelate prepared by reacting the peptide with FeCl2 at pH 6.5 (also: ferrous iron chelate (reaction with FeCl2))
ACE inhibition mode (ACE (from rabbit lungs)): increased the Km value of the Michaelis–Menten kinetic curves but did not change the Vmax
ability to improve ferrous transmembrane absorption (Caco-2 cells; Caco-2 monolayer, Transwell, TEER > 400 Ω·cm2, apical to basolateral, comparators 0.3 mg/mL, HBSS, 37 °C, 5% CO2, 150 min, o-phenanthroline every 30 min, N = 3): greater than that of ferrous chloride
iron transport across the Caco-2 monolayer compared with ferrous lactate (Caco-2 cells; during 120–150 min, apical to basolateral, ferrous lactate 0.3 mg/mL): better
ABTS+ Scavenging Activity (%) Before Gastrointestinal Digestion (ABTS+ quenching ability): 35.27 ± 2.45 d %
